This is an account of results in publication PMC6261512 (Protein expression and purification, 2018).

This data set deals with the molecule itself. Kind of data set: SEC. Background: Size exclusion chromatography separates by hydrodynamic size, large species first.

B1: MBP-5-HT3A-ICD chimera (maltose-binding protein and the intracellular domain of the mouse serotonin type 3A receptor) (domain or fragment, UniProt P23979 327-466, looked up)
chain: ETIFIVRLVHKQDLQRPVPDWLRHLVLDRIAWILCLGEQPMAHRPPATFQANKTDDCSGSDLLPAMGNHCSHVGGPQDLEKTPRGRGSPLPPPREASLAVRGLLQELSSIRHFLEKRDEMREVARDWLRVGYVLDRLLFR
Broadly, the stoichiometry N is the number of molecules, sites or subunits per partner or assembly. As to B1, the “stoichiometry N” value came out at 5.
